Results from patent publication CN1618813A (SHANGHAI HUMAN GENOME RES CT, dated 2005).

Biological target: T1, 甲状腺素受体相互作用蛋白15 (thyroid receptor interacting protein 15, TRIP15) (human, UniProt P61201 1-443)
T1 construct: Purified prokaryotic expression product of the TRIP15 gene; also called TRIP15蛋白; 人TRIP15蛋白
Test: indirect ELISA, phage antibody on purified TRIP15 antigen

T1 sequence (P61201 whole entry): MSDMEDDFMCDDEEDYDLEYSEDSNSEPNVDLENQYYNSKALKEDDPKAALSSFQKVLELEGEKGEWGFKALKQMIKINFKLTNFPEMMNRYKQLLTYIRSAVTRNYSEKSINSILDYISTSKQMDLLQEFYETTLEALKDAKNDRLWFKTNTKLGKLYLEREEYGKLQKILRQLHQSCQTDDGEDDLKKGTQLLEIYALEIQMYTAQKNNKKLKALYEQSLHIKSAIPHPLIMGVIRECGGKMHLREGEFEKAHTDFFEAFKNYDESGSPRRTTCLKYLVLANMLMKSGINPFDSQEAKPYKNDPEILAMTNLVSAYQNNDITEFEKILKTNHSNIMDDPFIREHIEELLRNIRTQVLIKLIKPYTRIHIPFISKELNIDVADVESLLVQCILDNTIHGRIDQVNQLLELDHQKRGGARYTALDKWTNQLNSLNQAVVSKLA

B1: 抗TRIP15噬菌体抗体 (anti-TRIP15 phage-displayed human single-chain antibody, positive clone) (scFv, V domains shown)
VH: EVQLLESGGGLVQPGGSLRLSCAASGFTFSSYAMSWVRQAPGKGLEWVSSISNDGLKTLYADSVKGRFTISRDNSKNTLYLQMNSLRAEDTAVYYCAKNTGSFDYWGQGTLVTV
VL: DIQMTQSPSSLSASVGDRVTITCRASQSISSYLNWYQQKPGKAPKLLIYRASNLQSGVPSRFSGSGSGTDFTLTISSLQPEDFATYYCQQVLRRPATFGQGTKVEIKR
notes: also called 阳性克隆的噬菌体抗体; 针对TRIP15抗原的scFv
  binding result: binds
